Measurements from IntAct's records for PubMed 24366543.

B1: Nuclear factor erythroid 2-related factor 2 (Mus musculus), Q60795 (parent)
chain: MMDLELPPPGLQSQQDMDLIDILWRQDIDLGVSREVFDFSQRQKDYELEKQKKLEKERQEQLQKEQEKAFFAQFQLDEETGEFLPIQPAQHIQTDTSGSASYSQVAHIPKQDALYFEDCMQLLAETFPFVDDHESLALDIPSHAESSVFTAPHQAQSLNSSLEAAMTDLSSIEQDMEQVWQELFSIPELQCLNTENKQLADTTAVPSPEATLTEMDSNYHFYSSISSLEKEVGNCGPHFLHGFEDSFSSILSTDDASQLTSLDSNPTLNTDFGDEFYSAFIAEPSDGGSMPSSAAISQSLSELLDGTIEGCDLSLCKAFNPKHAEGTMEFNDSDSGISLNTSPSRASPEHSVESSIYGDPPPGFSDSEMEELDSAPGSVKQNGPKAQPAHSPGDTVQPLSPAQGHSAPMRESQCENTTKKEVPVSPGHQKAPFTKDKHSSRLEAHLTRDELRAKALHIPFPVEKIINLPVDDFNEMMSKEQFNEAQLALIRDIRRRGKNKVAAQNCRKRKLENIVELEQDLGHLKDEREKLLREKGENDRNLHLLKRRLSTLYLEVFSMLRDEDGKPYSPSEYSLQQTRDGNVFLVPKSKKPDTKKN

Variants of: B1
Conditions: with keap1_mouse Keap1, Q9Z2X8
keap1_mouse Keap1, Q9Z2X8, sequence (Q9Z2X8 whole entry): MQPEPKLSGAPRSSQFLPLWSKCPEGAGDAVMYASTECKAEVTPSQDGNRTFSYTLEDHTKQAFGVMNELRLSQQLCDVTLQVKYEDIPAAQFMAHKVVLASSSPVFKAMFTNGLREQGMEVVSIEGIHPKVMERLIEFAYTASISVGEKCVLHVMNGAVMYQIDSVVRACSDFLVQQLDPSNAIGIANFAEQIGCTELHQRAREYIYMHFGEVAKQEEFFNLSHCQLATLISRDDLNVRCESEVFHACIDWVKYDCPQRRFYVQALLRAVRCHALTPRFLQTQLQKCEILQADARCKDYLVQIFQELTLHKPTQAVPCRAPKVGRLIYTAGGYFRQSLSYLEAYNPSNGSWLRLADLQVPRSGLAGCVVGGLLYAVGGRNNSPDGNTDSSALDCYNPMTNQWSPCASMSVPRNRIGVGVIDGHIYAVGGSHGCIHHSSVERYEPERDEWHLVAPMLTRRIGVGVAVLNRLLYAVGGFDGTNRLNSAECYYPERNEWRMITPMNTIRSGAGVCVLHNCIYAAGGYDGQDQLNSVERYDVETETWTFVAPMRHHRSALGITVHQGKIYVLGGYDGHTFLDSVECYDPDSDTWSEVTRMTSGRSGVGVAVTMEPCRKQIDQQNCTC

Row | Variant | effect of a mutation on the interaction
1 | I28T | disrupting interaction

Variants of: B1
Conditions: with keap1_mouse Keap1, Q9Z2X8
Remark: another data set of the same source

Row | Variant | effect of a mutation on the interaction
2 | R34Q | disrupting interaction

Variants of: B1
Conditions: with keap1_mouse Keap1, Q9Z2X8
Remark: another data set of the same source

Row | Variant | effect of a mutation on the interaction
3 | W24R | disrupting interaction

Variants of: B1
Conditions: with keap1_mouse Keap1, Q9Z2X8
Remark: another data set of the same source

Row | Variant | effect of a mutation on the interaction
4 | W24C | disrupting interaction

Variants of: B1
Conditions: with keap1_mouse Keap1, Q9Z2X8
Remark: another data set of the same source

Row | Variant | effect of a mutation on the interaction
5 | L30F | disrupting interaction

Variants of: B1
Conditions: with keap1_mouse Keap1, Q9Z2X8
Remark: another data set of the same source

Row | Variant | effect of a mutation on the interaction
6 | G31A | disrupting interaction

Variants of: B1
Conditions: with keap1_mouse Keap1, Q9Z2X8
Remark: another data set of the same source

Row | Variant | effect of a mutation on the interaction
7 | D29G | disrupting interaction

Variants of: B1
Conditions: with keap1_mouse Keap1, Q9Z2X8
Remark: another data set of the same source

Row | Variant | effect of a mutation on the interaction
8 | D29H | disrupting interaction

Variants of: B1
Conditions: with keap1_mouse Keap1, Q9Z2X8
Remark: another data set of the same source

Row | Variant | effect of a mutation on the interaction
9 | Q43R | increasing interaction

Variants of: B1
Conditions: with keap1_mouse Keap1, Q9Z2X8
Remark: another data set of the same source

Row | Variant | effect of a mutation on the interaction
10 | L23R | disrupting interaction

Variants of: B1
Conditions: with keap1_mouse Keap1, Q9Z2X8
Remark: another data set of the same source

Row | Variant | effect of a mutation on the interaction
11 | V32G | disrupting interaction

Variants of: B1
Conditions: with keap1_mouse Keap1, Q9Z2X8
Remark: another data set of the same source

Row | Variant | effect of a mutation on the interaction
12 | S33R | increasing interaction

Variants of: B1
Conditions: with keap1_mouse Keap1, Q9Z2X8
Remark: another data set of the same source

Row | Variant | effect of a mutation on the interaction
13 | D27Y | disrupting interaction

Variants of: B1
Conditions: with keap1_mouse Keap1, Q9Z2X8
Remark: another data set of the same source

Row | Variant | effect of a mutation on the interaction
14 | Q26E | disrupting interaction
